Data published in publication PMC8894357 (2022).

Target: T1, Human β-catenin, GST tagged (human, UniProt P35222 1-781)
T1 chain: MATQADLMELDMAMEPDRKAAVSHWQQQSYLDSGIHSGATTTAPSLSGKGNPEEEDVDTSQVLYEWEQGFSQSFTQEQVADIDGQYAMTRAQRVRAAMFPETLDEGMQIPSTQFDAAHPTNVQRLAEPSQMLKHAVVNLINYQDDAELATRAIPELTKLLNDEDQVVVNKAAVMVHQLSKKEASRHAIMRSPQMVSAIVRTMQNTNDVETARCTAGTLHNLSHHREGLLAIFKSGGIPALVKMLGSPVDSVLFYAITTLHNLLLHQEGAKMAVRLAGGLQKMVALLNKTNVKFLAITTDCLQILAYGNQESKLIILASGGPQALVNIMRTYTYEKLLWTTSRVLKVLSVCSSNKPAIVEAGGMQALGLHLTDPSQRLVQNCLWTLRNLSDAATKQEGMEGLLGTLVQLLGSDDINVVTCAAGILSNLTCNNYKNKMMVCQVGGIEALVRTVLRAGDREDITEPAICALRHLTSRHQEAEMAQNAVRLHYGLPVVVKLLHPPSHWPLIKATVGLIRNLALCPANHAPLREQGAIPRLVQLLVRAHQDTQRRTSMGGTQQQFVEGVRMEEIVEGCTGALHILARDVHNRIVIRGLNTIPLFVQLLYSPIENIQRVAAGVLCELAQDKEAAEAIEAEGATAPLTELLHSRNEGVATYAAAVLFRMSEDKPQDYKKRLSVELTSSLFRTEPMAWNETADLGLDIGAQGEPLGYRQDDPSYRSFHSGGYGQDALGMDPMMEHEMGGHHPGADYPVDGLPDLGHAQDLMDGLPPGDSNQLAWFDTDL

B1: αE-catenin, monomeric fraction (mouse, full length, His(6x) tagged) (natural protein)
chain: MTAVHAGNINFKWDPKSLEIRTLAVERLLEPLVTQVTTLVNTNSKGPSNKKRGRSKKAHVLAASVEQATENFLEKGDKIAKESQFLKEELVVAVEDVRKQGDLMKSAAGEFADDPCSSVKRGNMVRAARALLSAVTRLLILADMADVYKLLVQLKVVEDGILKLRNAGNEQDLGIQYKALKPEVDKLNIMAAKRQQELKDVGNRDQMAAARGILQKNVPILYTASQACLQHPDVAAYKANRDLIYKQLQQAVTGISNAAQATASDDAAQHQGGSGGELAYALNNFDKQIIVDPLSFSEERFRPSLEERLESIISGAALMADSSCTRDDRRERIVAECNAVRQALQDLLSEYMGNAGRKERSDALNSAIDKMTKKTRDLRRQLRKAVMDHVSDSFLETNVPLLVLIEAAKNGNEKEVKEYAQVFREHANKLIEVANLACSISNNEEGVKLVRMSASQLEALCPQVINAALALAAKPQSKLAQENMDLFKEQWEKQVRVLTDAVDDITSIDDFLAVSENHILEDVNKCVIALQEKDVDGLDRTAGAIRGRAARVIHVVTSEMDNYEPGVYTEKVLEATKLLSNTVMPRFTEQVEAAVEALSSDPAQPMDENEFIDASRLVYDGIRDIRKAVLMIRTPEELDDSDFETEDFDVRSRTSVQTEDDQLIAGQSARAIMAQLPQEQKAKIAEQVASFQEEKSKLDAEVSKWDDSGNDIIVLAKQMCMIMMEMTDFTRGKGPLKNTSDVISAAKKIAEAGSRMDKLGRTIADHCPDSACKQDLLAYLQRIALYCHQLNICSKVKAEVQNLGGELVVSGVDSAMSLIQAAKNLMNAVVQTVKASYVASTKYQKSQGMASLNLPAVSWKMKAPEKKPLVKREKQDETQTKIKRASQKKHVNPVQALSEFKAMDSI
Kd: 35 nM
